How the values were obtained:
[1] = molecular target: GlyR-α3L-eGFP (glycine receptor α3, long splice variant L, N-terminally tagged with eGFP) (mouse) (UniProt Q91XP5); experiment: subunit counting by stepwise photobleaching
[2] = molecular target: GlyR-α3L-eGFP (glycine receptor α3, long splice variant L, N-terminally tagged with eGFP) (mouse) (UniProt Q91XP5); experiment: molecular brightness by raster image correlation spectroscopy
[3] = molecular target: the molecule itself; experiment: subunit counting by stepwise photobleaching
[4] = molecular target: the molecule itself; experiment: molecular brightness by raster image correlation spectroscopy

N (α3L-eGFP subunits per heteropentamer) [1]	heteropentameric fraction (fit with a 2nd order binomial) [1] [%]	heteropentameric fraction (fit with a 3rd order binomial) [1] [%]	heteropentameric fraction (fit with a 4th order binomial) [1] [%]	N (α3L-eGFP subunits per heteropentamer, in a few cells) [2]	Molecule	stoichiometry N [3]	stoichiometry N [4]
2 to 4	23	36	67	1	GlyR-α3K-mCherry (glycine receptor α3, short splice variant K, N-terminally tagged with mCherry)		
					GlyR-α3L-eGFP (glycine receptor α3, long splice variant L, N-terminally tagged with eGFP) (receptor, mouse, UniProt Q91XP5 34-464, looked up) ARSRSAPMSPSDFLDKLMGRTSGYDARIRPNFKGPPVNVTCNIFINSFGSIAETTMDYRVNIFLRQKWNDPRLAYSEYPDDSLDLDPSMLDSIWKPDLFFANEKGANFHEVTTDNKLLRIFKNGNVLYSIRLTLTLSCPMDLKNFPMDVQTCIMQLESFGYTMNDLIFEWQDEAPVQVAEGLTLPQFLLKEEKDLRYCTKHYNTGKFTCIEVRFHLERQMGYYLIQMYIPSLLIVILSWVSFWINMDAAPARVALGITTVLTMTTQSSGSRASLPKVSYVKAIDIWMAVCLLFVFSALLEYAAVNFVSRQHKELLRFRRKRKNKTEAFALEKFYRFSDTDDEVRESRFSFTAYGMGPCLQAKDGVVPKGPNHAVQVMPKSPDEMRKVFIDRAKKIDTISRACFPLAFLIFNIFYWVIYKILRHEDIHQQQD	5	~5
